Assay in all cases: HPLC assay of 7-O-glucoside formation
Common to all, as to type: biochemical, Camellia sinensis
Details in all cases: 2.5 mM UDP-glucose, pH 8.0, 40°C

Series [1] has as its system T1, O=c1c(O)c(-c2ccc(O)c(O)c2)oc2cc(O)cc(O)c12.
T1 construct: Ni-TED purified (methods say amylose resin)

Series [2] has as its system T2, O=c1c(O)c(-c2ccc(O)cc2)oc2cc(O)cc(O)c12.
T2 construct: Ni-TED purified (methods say amylose resin)

Series [3] has as its system T3, O=c1cc(-c2ccc(O)c(O)c2)oc2cc(O)cc(O)c12.
T3 construct: Ni-TED purified (methods say amylose resin)

The subject of series [4] is T4, O=c1cc(-c2ccc(O)cc2)oc2cc(O)cc(O)c12.
T4 construct: Ni-TED purified (methods say amylose resin)

These results are taken from paper PMC12577854, “CsUGT89A2 enhances tea plant resistance to Toxoptera aurantia by mediating flavonoid glycosides biosynthesis” (Horticulture Research, 2025).

For the substance “rCsUGT89A2 (CsUGT89A2, LOC114303213) (Camellia sinensis var. sinensis)”, the Michaelis constant (Km) in series [1] turned out to be 106.0 µM; in series [2], 164.5 µM; in series [3] it was 76.4 µM; in series [4] it was 46.3 µM.

As usually defined, the Km is the concentration of substrate that gives half-maximal velocity.
